# Test results published in article PMC11830286, “Protein identification using Cryo-EM and artificial intelligence guides improved sample purification” (Journal of Structural Biology: X, 2025).
# Molecular target: the molecule itself
# Assay: cryo-EM structure; single particle analysis of the SEC peak of the nanoparticle preparation purified without glycine or arginine; octahedral symmetry enforced, 2.51 Å; about 0.3 mg/mL, buffer with DDM
protein,measurement,value
"dihydrolipoamide succinyltransferase (DLST) (enzyme, E. coli BL21 (DE3), UniProt P0AFG6 1-405, looked up, dihydrolipoamide succinyltransferase (DLST) of E. coli BL21(DE3), UniProt A0A140NDX4; host protein, no construct; the first 170 residues were unresolved in the cryo-EM map and only the catalytic domain was modelled; also called dihydrolipoyllysine-residue succinyltransferase; contaminant nanoparticle; source: endogenous, E. coli BL21(DE3) expression host; co-purified as a contaminant with …) MSSVDILVPDLPESVADATVATWHKKPGDAVVRDEVLVEIETDKVVLEVPASADGILDAVLEDEGTTVTSRQILGRLREGNSAGKETSAKSEEKASTPAQRQQASLEEQNNDALSPAIRRLLAEHNLDASAIKGTGVGGRLTREDVEKHLAKAPAKESAPAAAAPAAQPALAARSEKRVPMTRLRKRVAERLLEAKNSTAMLTTFNEVNMKPIMDLRKQYGEAFEKRHGIRLGFMSFYVKAVVEALKRYPEVNASIDGDDVVYHNYFDVSMAVSTPRGLVTPVLRDVDTLGMADIEKKIKELAVKGRDGKLTVEDLTGGNFTITNGGVFGSLMSTPIINPPQSAILGMHAIKDRPMAVNGQVEILPMMYLALSYDHRLIDGRESVGFLVTIKELLEDPTRLLLDV",stoichiometry N,24
